The text below walks through data of the nanobody polyreactivity screen of Harvey et al. (2022).

This series in a line: yeast display, Sf9 membrane polyspecificity reagent, FACS + sequencing; frameworks hold sequencing errors. Put shortly: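 Nanobodies came from a synthetic yeast display library in Saccharomyces cerevisiae BJ5465, induced with galactose for 36–48 hours and stained for 1 hour at 4 °C with 10% biotinylated, detergent-solubilized Sf9 membrane reagent. Cells were enriched on streptavidin microbeads and then FACS-sorted, with low and high (top ~1%) gates set on anti-HA fluorescence for expression and streptavidin fluorescence for reagent binding. Each polyreactivity label reflects the gate a clone came from. Genes were amplified by colony PCR, sequenced by MiSeq 2 × 250 and filtered by CDR length.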
Take “QVQLVESGGGLVQAGGSLRLSCAASGSIFGRNAMGWYRHAPGKERELVARISSRGGSTYYADSVKGRFTISRDNAKKTVYLQMNSLKPEDTAVYYCNRDRTWQTNDYWGQGTQVTVSS”: the “polyreactivity (PSR sort gate)” value is reported as “high polyreactivity”.

Consider “QVQLVESGGGLVQAGGSLRLSCAASGSIFLYNTMGWYRQAPGKQRELVAALTYSGGSTYYADSVKGRFTISRDHAKNTVYLQMNSLKPEDTAVNYGNARHYSAYYSWGQGTLVTVSS”, for which the “polyreactivity (PSR sort gate)” value is “high polyreactivity”.

As for “QVQLVESGGRLVQAGGSHRLSCAASGRTFVENAMGWYRQAPGQEREFVAAISSSGDSTYYADSVKGRFTISRDNEKYTVYLKMNSLNPEDTAVYYCAARVYSRGLFYWGEGTQVTVSS”, the “polyreactivity (PSR sort gate)” value is given as “low polyreactivity”.

As to “QVQLVESGGGLVQAGGSLRLSCAASGSTSYGYAMGWYRQAPGKERELVAAISRTDRTYYADSVKGRFTISRDNAKNTVYLQMNSLKPEDTAVYYCTAVLVGRAEYYYWGQGTQVTVSS”, the “polyreactivity (PSR sort gate)” value is given as “high polyreactivity”.

Take “QVQLVESGGGLVQAGGSLRLSCAASGSTFLLYDMGWYRQAPGKERELVAAITWSGGSTYYADSVKGRFTISRDNAKNTVYLQMNSLKPEDTAVYYCAADSLGDRYYYWGQGTQVTVSS”: the “polyreactivity (PSR sort gate)” value was “low polyreactivity”.

As to “QVQLVESGGGLVQAGGTLRLSCAASGGIFVANAMGWYRQAPGKERELVAAISRSGGSTYYADSVKGRFTISRDNAKNTVYLQMNSLKPEDTAVYYCAAKSRRQYTVGLTSDYWGQGTQVTVSS”, the “polyreactivity (PSR sort gate)” value was “high polyreactivity”.

As to “QVQLVESGGGLVQAGGSLRLSCAASGSTLYPNAMGWYRQAPGKERELVAAISSGSSTYADSVKGRFTISRDNAKNTVYLQMNRLKPEDTAVYYCNADSRIHYDYWGQGTQVTVSS”, the “polyreactivity (PSR sort gate)” value is given as “low polyreactivity”.

For “QVQLVESGGGLVQAGGSLLLSCAASGLTFRRYNMGWYRQAPGKERELVAAISYSGGSTYYADSVKGRFTISRDNAKNTVYLQMNSLKPEDTAVYYCNDRYARVKQYGYWGQGTQVTVSS”, the “polyreactivity (PSR sort gate)” value is recorded as “low polyreactivity”.

Take “QVQLVESGGGVVQAGGSLRLSCAASGFILRAYAMGWYRQAPGKERELVAAITSATSTNYADSVKGRFTISRDNAKNTVYLQMNSLKPEDTAVYYCAADGGGGEFSYDSWGQGTQVTVSS”: the “polyreactivity (PSR sort gate)” value is given as “low polyreactivity”.

With “QVQLVESGGGLVQAGGSLRLSCAASGRIFYTYAMGWYRQAPGKERELVAAIRWSSGSTFYADSVKGRFTISRDNAKNSVYLQMNSLKPEDTAVYYCATEYYPQYQSTGWYDYWGQGTQVTVSS”, the “polyreactivity (PSR sort gate)” value is recorded as “low polyreactivity”.

For “QVQLVESGGGLVQAGGSLRLSCAASGLTFYVYAMGWYRQAPGKEREFVAAITRSGGSTHFADSVKGGFTISRDNAKYTVYLQMNSLKPEDTAVYYGAARAIRYYIRYYYWGQGTQVTVSS”, the “polyreactivity (PSR sort gate)” value is given as “high polyreactivity”.

For “QVQLVESGGGLVQAGGSLRLSCAASGRTFGLYAMGWYRQAPGKERELVASNTYSGGRTNYADSVKGRFTISRDNAKNTVYLQMNSLKPEDTAVYYCAASLWDDDSRLMYYWGQGTQVTVSS”, the “polyreactivity (PSR sort gate)” value is given as “high polyreactivity”.

Turning to “QVQLVESGGGLVQAGGSLRLSCAASGSTFAFYAMGWYRQAAGKERELVAAITWDGGTTYYADSVKGRFTLSRDNAKNTVYLQMNSLKPEDTAVYYCASDYAWFSIYDNVPSAPGYDYWGQGTQVTVSS”, the “polyreactivity (PSR sort gate)” value is given as “low polyreactivity”.

“QVQLVESGGGLVQAGGSLRLSCAASGFTFVRYAMGWYRQAPGKERELVAVISRSGGSTNYADSVKGRFTISRDNAKNTVYLQMNSLKAEDTAVYYCNVVVKGAWDYYPYDYWGQGTQVTVSS”: the “polyreactivity (PSR sort gate)” value is on record as “high polyreactivity”.

As to “QVQLVESGGGLVQAGASLRLSCAASGRTFGGYAMGWYRQAPGKERQLVAAISSSGTGTSYADSVKGRFTISRDNAKNTVYFEMNSLKPEDTAVYYCAARSSRTVLSIQDDDYWGQGTQVTVSS”, the “polyreactivity (PSR sort gate)” value was “low polyreactivity”.

For the sequence “QVQLVESGGGLVQAGGSHRLSCAASGGIAGNTMGWYRQAPGKERELVAAITRSGGRTYYADSVKGRFTISRDNAKNTVYLQMNSLKPEDTAVYYCAVTGLVRRRYGYWGQGTQVTVSS”, the “polyreactivity (PSR sort gate)” value is “high polyreactivity”.
